Data: the RNAGym collection of RNA variant scans (doi:10.7554/elife.90254)

B1: LINE1-mini (parent)
chain: GGCAGAGCUCAACACAGCGUGGCAAAGUGGCUGUGGCUAGACUGCC

Variants of: B1
Test: self-cleavage, relative activity (ratio to wild type); higher = more cleavage; in vitro, sequencing; the parent is a self-cleaving ribozyme

Variant	self-cleavage
GGCAGAGCUCAACACAGCGUGCCAAAGUGGCUGUGGCUAGACCGCC [G22C U43C]	0.06
GGCAGAGCUCAACACAGCGUGCCAAAGUGGCUGUGGCUAGACGGCC [G22C U43G]	0.06
GGCAGAGCUCAACACAGCGUGCCAAAGUGGCUGUGGCUAGACAGCC [G22C U43A]	0.12
GGCAGAGCUCAACACAGCGUGUCAAAGAGGCUGUGGCUAGACUGCC [G22U U28A]	0.58
GGCAGAGCUCAACACAGCGUGUCAAAGGGGCUGUGGCUAGACUGCC [G22U U28G]	0.83
GGCAGAGCUCAACACAGCGUGUCAAAGCGGCUGUGGCUAGACUGCC [G22U U28C]	0.42
GGCAGAGCUCAACACAGCGUGGAAAAGUGGCUGUGGCUAGACUGCA [C23A C46A]	0.98
GGCAGAGCUCAACACAGCGUGGAAAAGUGGCUGUGGCUAGACUGCU [C23A C46U]	1.1
GGCAGAGCUCAACACAGCGUGGAAAAGUGGCUGUGGCUAGACUGCG [C23A C46G]	1.53
GGCAGAGCUCAACACAGCGUGUCAAAGUGGCUGUGGCUAGACUGCC [G22U]	1.38
GGCAGAGCUCAACACAGCGUGUCAAAGUGGCUGUGGCUAGGCUGCC [G22U A41G]	0.37
GGCAGAGCUCAACACAGCGUGUCAAAGUGGCUGUGGCUAGUCUGCC [G22U A41U]	0.72
GGCAGAGCUCAACACAGCGUGUCAAAGUGGCUGUGGCUAGCCUGCC [G22U A41C]	0.04
GGCAGAGCUCAACACAGCGUGGAAAAGUGGCUGUGGCUGGACUGCC [C23A A39G]	0.08
GGCAGAGCUCAACACAGCGUGGAAAAGUGGCUGUGGCUCGACUGCC [C23A A39C]	0.27
GGCAGAGCUCAACACAGCGUGGAAAAGUGGCUGUGGCUUGACUGCC [C23A A39U]	0.73
GGCAGAGCUCAACACAGCGUGGAAAAGUGGCUGUGGCUAGAUUGCC [C23A C42U]	0.52
GGCAGAGCUCAACACAGCGUGGAAAAGUGGCUGUGGCUAGAAUGCC [C23A C42A]	0.3
GGCAGAGCUCAACACAGCGUGGAAAAGUGGCUGUGGCUAGAGUGCC [C23A C42G]	0.06

Variant	self-cleavage
GGCAGAGCUCAACACAGCGUGGAAAAGUGGCUGUGGCUAGACUGCC [C23A]	1.01
GGCAGAGCUCAACACAGCGUGUCAAAUUGGCUGUGGCUAGACUGCC [G22U G27U]	1.46
GGCAGAGCUCAACACAGCGUGUCAAACUGGCUGUGGCUAGACUGCC [G22U G27C]	0.57
GGCAGAGCUCAACACAGCGUGUCAAAAUGGCUGUGGCUAGACUGCC [G22U G27A]	1.04
GGCAGAGCUCAACACAGCGUGUCACAGUGGCUGUGGCUAGACUGCC [G22U A25C]	0.65
GGCAGAGCUCAACACAGCGUGUCAUAGUGGCUGUGGCUAGACUGCC [G22U A25U]	1.49
GGCAGAGCUCAACACAGCGUGUCAGAGUGGCUGUGGCUAGACUGCC [G22U A25G]	1.01
GGCAGAGCUCAACACAGCGUGUCAAAGUGGCUAUGGCUAGACUGCC [G22U G33A]	0.63
GGCAGAGCUCAACACAGCGUGUCAAAGUGGCUUUGGCUAGACUGCC [G22U G33U]	0.28
GGCAGAGCUCAACACAGCGUGUCAAAGUGGCUCUGGCUAGACUGCC [G22U G33C]	0.07
GGCAGAGCUCAACACAGCGUGGAAAAGUGGCUGUGGCUAGACUGGC [C23A C45G]	0.42
GGCAGAGCUCAACACAGCGUGGAAAAGUGGCUGUGGCUAGACUGAC [C23A C45A]	1.12
GGCAGAGCUCAACACAGCGUGGAAAAGUGGCUGUGGCUAGACUGUC [C23A C45U]	1.97
GGCAGAGCUCAACACAGCGUGUCAAAGUGGCUGUGGCUAGACUGAC [G22U C45A]	0.88
GGCAGAGCUCAACACAGCGUGUCAAAGUGGCUGUGGCUAGACUGGC [G22U C45G]	0.42
GGCAGAGCUCAACACAGCGUGUCAAAGUGGCUGUGGCUAGACUGUC [G22U C45U]	1.25
GGCAGAGCUCAACACAGCGUGGAAAAGUGGCUGUGGGUAGACUGCC [C23A C37G]	0.02
GGCAGAGCUCAACACAGCGUGGAAAAGUGGCUGUGGAUAGACUGCC [C23A C37A]	0.06
GGCAGAGCUCAACACAGCGUGGAAAAGUGGCUGUGGUUAGACUGCC [C23A C37U]	0.03

Variant	self-cleavage
GGCAGAGCUCAACACAGCGUGUCCAAGUGGCUGUGGCUAGACUGCC [G22U A24C]	0.92
GGCAGAGCUCAACACAGCGUGUCGAAGUGGCUGUGGCUAGACUGCC [G22U A24G]	1.25
GGCAGAGCUCAACACAGCGUGUCUAAGUGGCUGUGGCUAGACUGCC [G22U A24U]	1.4
GGCAGAGCUCAACACAGCGUGUCAAAGUGGCUGUGGCUAGAUUGCC [G22U C42U]	0.39
GGCAGAGCUCAACACAGCGUGUCAAAGUGGCUGUGGCUAGAGUGCC [G22U C42G]	0.04
GGCAGAGCUCAACACAGCGUGUCAAAGUGGCUGUGGCUAGAAUGCC [G22U C42A]	0.28
GGCAGAGCUCAACACAGCGUGGAAACGUGGCUGUGGCUAGACUGCC [C23A A26C]	0.98
GGCAGAGCUCAACACAGCGUGGAAAUGUGGCUGUGGCUAGACUGCC [C23A A26U]	0.88
GGCAGAGCUCAACACAGCGUGGAAAGGUGGCUGUGGCUAGACUGCC [C23A A26G]	0.94
GGCAGAGCUCAACACAGCGUGUCAAAGUGGCUGUGGCUAAACUGCC [G22U G40A]	0.2
GGCAGAGCUCAACACAGCGUGUCAAAGUGGCUGUGGCUACACUGCC [G22U G40C]	0.18
GGCAGAGCUCAACACAGCGUGUCAAAGUGGCUGUGGCUAUACUGCC [G22U G40U]	0.15
GGCAGAGCUCAACACAGCGUGUCAAAGUGGCAGUGGCUAGACUGCC [G22U U32A]	0.13
GGCAGAGCUCAACACAGCGUGUCAAAGUGGCCGUGGCUAGACUGCC [G22U U32C]	0.6
GGCAGAGCUCAACACAGCGUGUCAAAGUGGCGGUGGCUAGACUGCC [G22U U32G]	0.15
GGCAGAGCUCAACACAGCGUGGAAAAUUGGCUGUGGCUAGACUGCC [C23A G27U]	0.72
GGCAGAGCUCAACACAGCGUGGAAAACUGGCUGUGGCUAGACUGCC [C23A G27C]	0.81
GGCAGAGCUCAACACAGCGUGGAAAAAUGGCUGUGGCUAGACUGCC [C23A G27A]	0.92
